This note sets out measurements from US20060058224A1, “Methods of treating obesity with combination therapeutics” (priority 2004, published 2006).

The subject of test [1] is DIO (Diet-Induced Obesity; AKR/J mice fed a high fat diet) mice. Kind of test: 24 h food intake in DIO mice over the 21 day study. Type of test: in vivo, mouse. On the procedure: FIG. 2 is a graph of 24 h food intake monitored for the duration of the study for the DIO mice treated as described in the legend of FIG. 1.
(§1) A study was conducted to determine the effect of the combination of phentermine and Axokine™ on body weight and food intake in a mouse model of obesity. 30 DIO (Diet-Induced Obesity; AKR/J mice fed a high fat diet) mice were divided into 5 equal groups (n=6 per group). Four groups were treated daily in the afternoon starting on Day 0 as follows: Group A (control): 0.9% NaCl (4 μl/g, intraperitoneal (IP) injection) and placebo (4 μl/g subcutaneous (SC) injection); Group B: Axokine™ (0.03 mg/kg, SC); Group C: phentermine (10.0 mg/kg, IP); Group D: Axokine™ (0.03 mg/kg, SC)+phentermine (10.0 mg/kg, IP). The […] group, Group E was pair fed to Group B; each animal in this group received the average amount of food the Axokine™ treated animals consumed the previous day. This treatment paradigm continued until Day 21 (last injection on Day 20). […] Animals who were pair-fed to the Axokine™ group, lost weight at a rate similar to that of the Axokine™ group up to Day 11 of the study. After this time, their weight loss reached a plateau.
After the second day of the study, control animals resumed their typical eating pattern, consuming approximately 4 g of food a day. Animals who received Axokine™ or were pair-fed, maintained this decreased food intake of about 2.75 g per day until Day 12 when they began to consume more food (3.5 g at the end of the study).

For test [2] the test system is unchanged. Kind of test: Effect on body weight in a mouse model of obesity (DIO mice), daily treatment Day 0 to Day 21. Type of test: in vivo. The following applies: Axokine 0.03 mg/kg SC, phentermine 10.0 mg/kg IP; for loss of starting body weight: after 21 days of daily treatment, control lost 2%; for body weight change in words (FIG. 1): daily administration. The method, then: FIG. 1 is a graph of the change in body weight as a percentage of weight at Day 0 from Day 0 to Day 21 food intake (24 hours) over time (Days —1 to 21) for diet-induced obese (DIO) mice treated with 0.9% NaCl (4 μl/g, intraperitoneal (IP) injection) and placebo (4 μl/g subcutaneous (SC) injection; Group A: Control ═X); Axokine™ (0.03 mg/kg, SC; Group B=⋄); phentermine (10.0 mg/kg, IP; Group C=□); Axokine™ (0.03 mg/kg, SC) and phentermine (10.0 mg/kg, IP; Group D=□); and pair fed to group B=⋄).
as §1

For `CC(C)(N)Cc1ccccc1` [phentermine, reference compound], in test [1] (daily treatment, Axokine 0.03 mg/kg SC, phentermine 10.0 mg/kg IP), the “food intake in words (FIG. 2)” value is on record as “decreased food intake relative to control”. In addition, in test [2], the “loss of starting body weight” value is on record as “about 15%” and the “body weight change in words (FIG. 1)” value is reported as “significant decrease in body weight relative to control animals”.

B1: Axokine™: modified ciliary neurotrophic factor (CNTF) molecule, hCNTF C17A Q63R Δ15 (SEQ ID NO:3 or SEQ ID NO:4) (protein)
chain: MAFTEHSPLTPHRRDLASRSIWLARKIRSDLTALTESYVKHQGLNKNINLDSADGMPVASTDRWSELTEAERLQENLQAYRTFHVLLARLLEDQQVHFTPTEGDFHQAIHTLLLQVAAFAYQIEELMILLEYKIPRNEADGMPINVGDGGLFEKKLWGLKVLQELSQWTVRSIHDLRFISSHQTG
As to B1, the “24 h food intake at the end of the study” value in test [1] (Axokine 0.03 mg/kg SC daily, end of the study (Day 21)) is on record as 3.5 g. Also, the “24 h food intake” value in test [1] (Axokine 0.03 mg/kg SC daily, from Day 2 until Day 12, control approximately 4 g a day) is listed as “about 2.75 g per day”. In test [2], the “loss of starting body weight” value is given as “approximately 19%” and the “body weight change in words (FIG. 1)” value is “significant decrease in body weight relative to control animals”.
